Laboratory results reported in the DeepSol protein solubility set.

Test: soluble on expression in E. coli; label from the status in PepcDB or PDB records

Soluble on expression in E. coli, not soluble:
MGSDKIHHHHHHMSRFTYAYMMMTRLETLKNNLQAAFGQDLALTESLGELTLEVAAEQWFSACTKLRTDPALRFESCIDLCGVDYLTWGNGTQPEEKTGPVTHGRYAVVVHLLSIEHNWRLRVRTWAPDDEFPMVSSLLECWPGVNWFEREAFDLYGIVFEGHPDLRRILTDYGFIGHPFRKDFPLSGTVEMRYDPEQKRVIYQPVTIDPREITPRVVREGSYGMGR
MGSDKIHHHHHHMSRKDVVAGIRNEEGISTVLDLLKQSFGERFQTGQSFREQHAHTTTYLPAQLPDGVVFVESAEDVKTVVRTCAQHKVPMVPFGVGSSLEGQVNAAHGGISIDFTRMDKVLEVNAEDLDCTVQPGVTREALNTYLRDTGLFFPIDPGANASIGGMASTRASGTNAVRYGTMKDNVMALTVVTANGEEIRTAHRARKSSAGYDLTRLFVGAEGTLGVITSITLKLQGIPEKIGGGVCAFADVKSACDAVIMTIQMGIPVARIELLDAMQVRACNAYSNLSLPERPTLFLEFHGTEQTVALQAQQFAAIAEEYGAEDLRFTSDPQERAQLWKARHNAYWAGRALAPELAGLSTDVCVPISKLAECVAETQADIAETGLLAPIVGHVGDGNFHLLILFDDKDAENVDKVEAFMARLNERALAMDGTCTGEHGVGQGKMSYLEAELGGALDVMRQVKRGLDPDNLFNPGKIFRL
MGSDKIHHHHHHMSRTQEKHNRSVSKDVLVVGGGTSGFVAAIAAARNGASVLLLEQRDHLGGTHSGGMVMMIRSMRHMKAPANMEQKKIMMTGYESSFDDEQVVRSIVQEYINRMLEIGSAWGRKDEATARQMFDPEIAKWVIQDMVAEAGVEVWLNTQATDVIMEGNALKGVVIESLRDRVEVHAGITIDTTGDGDIAAAAGAAFEFGSPEDGKCQPASLYFAVGGVQLDKTIAYMRDHANEFGEEYVKTMVGLKEQNKPITMFPFKEKIREALKNGDYPIPYGVETVNPDTLSYIVRPMFRNGKFRYDVTYHNMDMAYNFDATDRVELTKATLAMRDLANKMAKFYRKYVPGYEDSYLSYTAQSVGIRDSRRIVCDYTLTREDVLAGQVFPDGIGRYGSLMDVHDKSGKKSLSLVEVGGHGWFHVPFRSLLPKGIENLMVAGRCISADYDAQGSVRSQAASMVTGQATGTAAALAVQQKRKLRELDVSALQEVLKAQNQVI
MGSDKIHHHHHHMSSASLLWCHSGVSTVRFGERIFTLVAGDLLFAPEEAQVADDSQGLVLNIRFETLNIMGPARRIHLGHVWNDRLTFEYSRSLFGKETLSPDIARLFTDRVPTPPLPAPRKARAVAQVLVSNPADQTSLEEFAEIQGVSARTLQRQFLKSTGYSFSEWRAAQRVCVAASLLAHDFSISVVANLVGFAATSSLTRAFRRHTGATPSTFTTGQIGMGSAGHPPRIPATTTFAEAHQDQQLWIYSGTATVTTPGYCRFMGQGDMVTIPAGTQTRIDVAAGSIAFPVPVGLDEWGMDLTRVVAVNNQQPKPLTILEQSEWSKLSEELLNTPVPVQM
MGSDKIHHHHHHMSSINYAEKIPNNVNLSEDRKLQRALESWQPHYIDWWKEMGPEGTSTSEIYLRTAISAEPDGWAQFGHVKMEDYRWGIFLAPPEKDRKVNFGAHKGEAAWQEVPGEYRSMLRRLITVQGDTEPASVEQQRLLGKCCPSLYDLRNLFQVNVEEGRHLWAMVYLLHAHFGKDGREEAEEMLARRSGDADKPRILGAFNEKTADWLAFFMFTFITDRDGKYQLCALAESGFDPLSRSCRFMLTEEAHHMFVGESGVGRIIERACQVMKENRTDDVRKFGVIDLPTIQRYLNFHYSVTSDLYGAEVSTNAATSYNMGIKGRYEETKIGDDHQLENTTYSVLHPVNGGFQAIEVPALNALNERLRLDWAEDVAKGVERWNKIIAKHGIDFKLTLPHLAFNRAIGHFSDIAVDPSGKVISTEEFARRRDEWLPSESDLAYVLSLMGSAVTKPGQFANWIAPPARGINNQAVDFDYVRFA
MGSDKIHHHHHHMSTKPFVYQDPFPLGKDETKYRKIEGSEKHVTVEQFAGKEVLRVCPEALSILANEAMRDVSFLLRPEHNESVAKILRDPEASMNDKGVALAFLRNAEISANFELPICQDTGTATVIAKKGQQVWTGGKDEEYLSKGVYKTYTEENLRYSQTVALNMYDEINTGTNLPAQVEIQAVDGDAYKFLFMAKGGGSANKTMLFQETKALLTPEKLEKFLVDKMKYLGTAACPPYHIAVVVGGCSADQCMKTVKLASAKYLDALPTQGNEHGQAFRDVELEEKLLQAAYKLGIGAQFGGKYFAHDVRVIRLPRHGASCPVGMAVSCSADRNIKAKITRDGLFVEELDRNPGRLIPEQYRGKHEHGVKIDLNRPMKEILAELSKYPVATPLLLNGTIVVGRDIAHAKFKEIIDAGKPVPEYLLNHPIYYAGPAKTPAGKPSGSFGPTTAGRMDSYVDLLQSKGASMIMIAKGNRSQQVTDACQKYGGFYLGSIGGPAAVLAEENIKKVECIDFPELGMEAVWKIEVENFPAFILVDDKGNDFFKQLGL
MGSDKIHHHHHHMSTPIPSLADAPPVLCVHGIGKTYAEPVLADVSLELRAGEVLALTGENGAGKSTLSKIVGGLVTPTTGSMTLGGAAYAPASRKDAEALGVRMVMQELNLLPTLSVAENLFLNRLPRNLVGWIDRARLRENARHAMAQVGLDAIDPDTLVGTLGIGHQQMVEIARNLIGDCRVLILDEPTAMLTAREVDLLFEQVERLKAHGVALVYISHRLEELKRIARRAAVLRDGRLVHVDEMANLSTDRLVTLMVGRDIGDRIDLGERRIGEVAFKVSGMTREPVVRDVSFEVRAGEIFGISGLIGAGRTELMRLIYGADHADAGSVSLGRGGAAPEPVTIASPSDAVQHGIALITEDRKGEGLLLTQPIAANISLGHLRAVSNKGVVDGRREAALARRQIDAMRIRSAGPSQPVSELSGGNQQKVVIGRWLARDCTVLLFDEPTRGIDVGAKFDIYALMGALAREGRALVVVSSDLRELMAICDRIGVMSAGRMTGLFERGNWTQDALLAAAFAGYAKRDDLLHEPIEPDAKAPDESKLVEY
MGSDKIHHHHHHMSVECFVTGGSGFVGQHLLAGLTAQGHKTWVLMRSPGNIERLKEQVGQLGGNPEYIHAVEGDISQEGLGLSEADKERVTSAAVFFHLAAQFSWGLTPERARTVNVQGALSVARLAASQRIRLLMVGGFMLQNLNHLASIGVDTQCPENTNWPAVYARVGGYEGSKLESHFAVIRYMQDADADYTIVHPATVCGHSENGHILDGQPLAELIRNLAQGRFKAIPGSASHWLPLVSVDYLVKMITCVAFDPSMANRQVLALYERTPNLQGMLGQIADTLKVKAPHRHIPIGLLRSILTIPGLATRLAISAESLNFIQTQRFDMGNSRQLERKYQFTHPDMTQALENTVRYVNGSLMKKSKSEGAGQRG
MGSDKIHHHHHHMSVLTVTGLSQRFLDKVLYQDASFQVNIEDHLGVIGQNGVGKSTLIKILTGAQTPDAGKIVWQKHLHVGYLDQYANLVPGQTVIEFLRTAFSDLYRKEAKMNQIYADYANHPDDDLLAKAGELQQELEAGDFYDLETTIQTVAEGLGITAMGMDHPVEALSGGQRSKLILAKLLLEKPDMLLLDEPTNYLDVSHIAWLTDWLQNFEGAFIVISHDFDFLENVTNAVLDIEFGQITKYTGTLKQAMRQKEADHETYLKAFAKQQETIKKTEAFIRKFKAGTRATMAKSREKQLARMDKLTPPGTRSKAHLAFPYAPVNRQILVDVNDLVVGYDKPLLQPMNFSVAKDQIIAFEGFNGVGKSTLLKTLLGLLPAISGNVEIADNVVFGYYEQELHWDQPKQSPVQYLEQRFPALTQKTVRQVLSRTALTSEEANNPLTMLSGGEQAKVKLADLMLQTTNILVMDEPTNHLDDDTKNALREGLQQYPGAVLLVSHEAGFYDSSWVDTVVNVEQLQVKA
MGSDKIHHHHHHMTAATSVRAQAREEDLSVKEILDSRWFQPEMFKTLDYVKGFVGAKVIFQMLKLGVFDDLLAGKTLEEIASGRSLDPYLLRTVFEYLSVEGLLVKEGRGGGASFRLSDYGSRIKHYEGWFNILIGGYDNIFSNIGAMLEEGIGGYKRDGKWVGVGSCQISKYDTIPITKAFIESVKPDAKQIVDFGCGNALYLCTLAKELGDIKAVGIEPDTSAYEAGLKKVAEMGLQDQVRLVNVDALDYEIDEQPDFILFGFVLQEIIAQIGRPAFIEYLRKLGRKFADSYLMVMEVDYDIDNREVMHSPMGRGYYNPYFLLHPFTNQLLLPKREWDEIFAQAGYDVVRDEVTSPKADPSGFGICYVLKYRGAHC
MGSDKIHHHHHHMTAAVKTTPGFASRLVNGVLAIKPLANLAKHQARQMMIKRAERIGVPWTKEVKTLQARDWKADLTQIENSQLSYPDYYVTSFHAYETGNLSWQAAFEVEPAAYAVHSKVVEGAEEAQGDPMLRQSYHNILKSQIPNEPQDILDVGCSVGLSTFALQAVYSQAKIIGLDLSPYFLAVANYRAQQRQAKINWLHAQAESTGLPDASFDLVSIFLMCHELPQSATRQILAEMRRVLRPGGYLAIMDMNPKSEVYQKMPAYILTLLKSTEPYLDEYFALDIEQAFVEAGFQTPTITNNTHRHRTVIAQVSG
MGSDKIHHHHHHMTALVCLTGSSCTDDENNGQGNNIIYGENIIGNGEQTFEIKDHQYLKRGTYLMKGWCYVTYGSTLTIEAGTVIKGDKETRAALIVEPGGKLIARGTVDAPIVFTSEMPAGKRKPGDWGGLILCGYARNNEDIMQIEGGPRTMHGGPNNADNSGVLSYVRVEFAGYPFKKNQEINGITFGSVGNGTQIDHLQVSYANDDAFEWFGGTVHAEYLVAYHCWDDDFDIDNGYSGTCRHLLGIRHPRIADITGSHAFECSNNGTNTPATPTTAATFEDVTIYGPASGDASFVNHPDFINGGGLRPENESMLGLFGAALYMGNNTSVTFRNCRISGYPSDMEGTPASADNVVFSEREETGYPEWTQGWCNFNPQETEY
MGSDKIHHHHHHMTASLTALRAFDAAARNGSFRAAAADLNVTPTAISHHIRGLEDQLGVKLFRREGRDVALTDDGRRLADATNQAFGLLDNAVQSLRRSARKAVRVSAGPIFTARWLMPRISDFWEAHREIELEVVPAIHPGARDRENVDIVIRWDRIADMGRDAVKLLELSPVAIASEDFVAKRGPIDHPKDLLILPLLHQRNHWGWLDWFEAMGVSLADPLYGPIFEDANVLLRGAAEGQGAIIGWLPLIDQDLAEKRVVRVFDERIAPTHGYFVDVQHNSRARVEVRAVEDWLISQS
MGSDKIHHHHHHMTASVNVPLNSRGKLAASLPAEQLAEITALFEFRRTGYSLDAPFYTDRSIFNIDMEAIFGQHWIFAASTAELPEPGDYVTVDYGPYSLIVLRNDDGAVNVLHNVCRHRGARVLTEAAGSTGNLVCGYHSWTYSPEGNLIHASAPGETKFDKSCFGLKRAHGREVAGLIFVCIADDAPTDFDETAKIFEPYLAPHDLSKTKIAYQQNIIEEGNWKLVMENNRECYHCDGHPELACSLFPTWGLTEGLIPPHLEEVWNRNKEAQSSLEERCRRYGLPYEVVEQLDTRIAGIRISRESLDGEGESFSADGRRLSKKLLGDLPDFRLGRCSMHLQPNSWFHFLGDHVITFGVFPINEHQSLVRTTWLVADDAVEGVDYDLEKLTYTWKQTNLQDKAFVELCQQGAGSPAYEPGPYMKSEYQVEAFINWYVQRVQEHLA
MGSDKIHHHHHHMTDDSLFLIDVDKILRTKAPKQYKYIPKFVVSYLKKIVHQDEINVFLNESKDKLGVDFLEACMEFLDAKVEVKGIENLPKEGLYTFVSNHPLGGQDGVALGYVLGRHYDGKVKYLVNDLLMNLRGLAPLCVPINKTGKQAKDFPKMVEAGFQSDDQMIMFPAGLCSRRQNGVIRDLEWKKTFIIKSIQAKRDVVPVHFGGRNSDFFYNLANVCKALGIKFNIAMLYLADEMFKNRHKTFTVTFGKPIPWQTFDKSKTPAQWAEYVKDIVYKL
